Laboratory results: patent publication US20240309051A1, “[…] T (TFH) CELLS […] TO SARS-COV-2 VIRUS” (priority 2021, published 2024)

What was measured:
[1] = tested on: T-cell hybridomas expressing TCRs of clonotype 1/2 (clone 1 and clone 2); format: cell-based, human
[2] = tested on: CD4 positive cells and patient-derived B cells immortalized by EBV infection; assay: Restimulation assay of PBMC by S864-882 peptide, human IL-21 ELISA; format: cell-based; details: peptide 1 μg/ml; 24 hr; compared with not stimulated
[3] = target: T1, SARS-COV-2 spike (S) protein peptide on HLA-DRA*01:01 / HLA-DRB1*15:01 (human); assay: activation reporter or marker
T1 peptide: PLLTDEMIAQYTSAL

[4] = target: T2, SARS-COV-2 spike (S) protein peptide on HLA-DRA*01:01 / HLA-DRB1*15:01 (human); assay: activation reporter or marker
T2 peptide: DEMIAQYTSALLAGT

[5] = target: T3, SARS-COV-2 spike (S) protein peptide on HLA-DRA*01:01 / HLA-DRB1*15:02 (human); assay: activation reporter or marker
T3 peptide: LLTDEMIAQYTSALLAGTI

[6] = target: T4, SARS-COV-2 S protein, S867-881 peptide with residue 5 (T) of SEQ ID NO: 13 replaced with alanine peptide on … (human); assay: activation reporter or marker
T4 peptide: DEMIAQYASALLAGT

[7] = target: T5, SARS-COV-2 spike (S) protein peptide on HLA-DRA*01:01 / HLA-DRB1*15:01 (human); assay: activation reporter or marker
T5 peptide: LPPLLTDEMIAQYTS

[8] = target: T6, SARS-COV-2 spike (S) protein peptide on HLA-DRA*01:01 / HLA-DRB1*15:01 (human); assay: activation reporter or marker
T6 peptide: AQYTSALLAGTITSG

[9] = target: T7, SARS-COV-2 spike (S) protein peptide on HLA-DRA*01:01 / HLA-DRB1*15:01 (human); assay: activation reporter or marker
T7 peptide: LLTDEMIAQYTSALLAGTI

[10] = target: T8, SARS-COV-2 spike (S) protein peptide on HLA-DRA*01:01 / HLA-DRB1*15:01 (human); assay: activation reporter or marker
T8 peptide: YTSALLAGTITSGWT

[11] = target: T9, SARS-COV-2 spike (S) protein peptide on HLA-DRA*01:01 / HLA-DRB1*15:01 (human); assay: activation reporter or marker
T9 peptide: PPLLTDEMIAQYTSA

## S864-882: peptide of positions 864-882 of the SARS-CoV-2 S protein, epitope of clones 1 and 2
[1]; APC from an individual who has DRB1*15:02 but not DRB1*15:01
  stimulation of clones 1 and 2, CD69 expression: able to stimulate both clones 1 and 2
[1]; single peptide 1 μg/ml, 20 hr, in the presence of APC
  epitope determination by stimulating clones 1 and 2 with single synthesized peptide, CD69: determined as an epitope for both clones 1 and 2
[2]
  concentration of IL-21 in the medium: higher

B1: Clone 1 (TCR-017) (TCR)
alpha TRAV12-1 TRAJ12 CDR3: CVVNRGSSYKLIF
beta TRBV11-2 TRBJ2-7 CDR3: CASSQTYEQYF
[3]
  binding result: no recognition
[4]
  binding result: recognises
[5]
  binding result: recognises
[6]
  binding result: no recognition
[7]
  binding result: no recognition
[8]
  binding result: no recognition
[9]
  binding result: recognises
[10]
  binding result: no recognition
[11]
  binding result: no recognition
